# Target: T1, endothelial nitric oxide synthase (eNOS), purified, unphosphorylated (UniProt P29473)
# T1 sequence: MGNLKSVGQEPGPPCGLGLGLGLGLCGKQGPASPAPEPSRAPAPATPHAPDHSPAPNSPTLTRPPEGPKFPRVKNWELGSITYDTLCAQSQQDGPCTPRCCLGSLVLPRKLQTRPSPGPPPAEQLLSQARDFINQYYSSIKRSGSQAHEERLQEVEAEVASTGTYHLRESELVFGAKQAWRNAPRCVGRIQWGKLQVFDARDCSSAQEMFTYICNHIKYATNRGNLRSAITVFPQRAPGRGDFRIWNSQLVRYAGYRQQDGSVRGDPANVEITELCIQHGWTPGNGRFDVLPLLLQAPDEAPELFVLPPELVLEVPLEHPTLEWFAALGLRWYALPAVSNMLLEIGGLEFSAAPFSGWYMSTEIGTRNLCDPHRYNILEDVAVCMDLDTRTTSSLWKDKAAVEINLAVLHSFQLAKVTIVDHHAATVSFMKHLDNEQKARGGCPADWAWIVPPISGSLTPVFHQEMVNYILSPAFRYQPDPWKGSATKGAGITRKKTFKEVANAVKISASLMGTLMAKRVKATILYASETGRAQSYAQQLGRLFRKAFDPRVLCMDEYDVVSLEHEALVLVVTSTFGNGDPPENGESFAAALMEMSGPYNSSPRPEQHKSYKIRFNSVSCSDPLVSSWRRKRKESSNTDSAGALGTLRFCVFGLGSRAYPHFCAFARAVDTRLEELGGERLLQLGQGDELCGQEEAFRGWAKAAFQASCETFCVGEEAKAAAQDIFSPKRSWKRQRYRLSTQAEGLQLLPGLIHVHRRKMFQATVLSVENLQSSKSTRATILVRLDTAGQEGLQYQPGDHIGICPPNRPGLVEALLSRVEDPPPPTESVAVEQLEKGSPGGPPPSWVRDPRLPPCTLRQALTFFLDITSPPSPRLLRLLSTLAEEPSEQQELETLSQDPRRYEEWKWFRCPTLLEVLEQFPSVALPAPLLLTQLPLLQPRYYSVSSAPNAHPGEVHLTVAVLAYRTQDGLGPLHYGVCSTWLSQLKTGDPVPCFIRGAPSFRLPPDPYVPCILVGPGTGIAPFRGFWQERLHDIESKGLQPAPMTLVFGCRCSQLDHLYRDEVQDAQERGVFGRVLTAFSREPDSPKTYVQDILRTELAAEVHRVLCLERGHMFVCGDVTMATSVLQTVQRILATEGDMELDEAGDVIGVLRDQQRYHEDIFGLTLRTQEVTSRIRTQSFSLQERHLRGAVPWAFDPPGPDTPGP
substance,measurement,value
Phosphorylated His-p38 (p38 MAP kinase),NO production (hemoglobin capture assay),Weak inhibition of NO formation by 1 µM p38 in the presence of 0.6 µM CaM was observed; NO production was reduced by an average of 30%
